Test results as given in patent publication US20050069911A1.
Where no end group is shown, it is not given here.

Columns and labels:
[1] = target: antibody P1; assay: peptide competition ELISA
[2] = target: antibody P1; assay: peptide competition ELISA; free peptide against immobilized target peptide for P1
[3] = target: antibody C1; assay: peptide competition ELISA; free peptide against immobilized target peptide for C1
[4] = target: antibody C1; assay: peptide competition ELISA
[5] = target: antibody P1; assay: peptide competition ELISA (Example 5): the free peptide, in rising concentration, competes with the plate-bound target peptide for antibody P1; HRP-labelled secondary antibody, absorbance at 450
[6] = target: antibody P1; assay: peptide competition ELISA; free peptide competes with immobilized target peptide for P1
[7] = target: antibody C1; assay: peptide competition ELISA (Example 5): the free peptide, in rising concentration, competes with the plate-bound target peptide for antibody C1; HRP-labelled secondary antibody, absorbance at 450
[8] = target: antibody C1; assay: peptide competition ELISA; free peptide competes with immobilized target peptide for C1

Binder | fold higher concentration without competition, against the antigen PET EPAELTDA [1] | IC50 [2] | IC50 [3] | fold higher concentration without competition, against the antigen PET YEVQGEVF [4] | also measured
DPTQLTDA [nearest-neighbor 8-mer peptide DPTQLTDA] | 25000 fold | > 1000 µM | – | – | –
EPAELTDA (not fully specified) [PSA-derived 8-mer PET peptide EPAELTDA] | – | – | – | – | IC50 (read off the curve) [5]: 0.09 µM; IC50 [6]: 0.04 µM
YEVQGEVF [CRP-derived 8-mer PET peptide YEVQGEVF] | – | – | – | – | IC50 (read off the curve) [7]: 0.9 µM; IC50 [8]: 1 µM
VEVNGEVF [nearest-neighbor 8-mer peptide VEVNGEVF] | – | – | > 1000 µM | > 1000 fold | –

More lines, main results first:

fold higher concentration without competition, against the antigen PET EPAELTDA [1] | IC50 [2] | IC50 [3] | fold higher concentration without competition, against the antigen PET YEVQGEVF [4] | Binder | also measured
25000 fold | > 1000 µM | – | – | EPVELTSA [nearest-neighbor 8-mer peptide EPVELTSA] | –
– | – | > 1000 µM | > 1000 fold | YEVLGEEF [nearest-neighbor 8-mer peptide YEVLGEEF] | –
